According to US20230000834A1, “PHYSIOLOGICALLY ACTIVE SUBSTANCE BOUND TO BIOTIN MOIETY, AND COMPOSITION FOR ORAL ADMINISTRATION INCLUDING SAME” (priority 2019, published 2023):
Non-standard residues stand in square brackets, D forms with d. No end group written: not given here. biotin moiety B2 = not defined here; biotin moiety B3 = not defined here; Aib = CC(C)(N)C(=O)O

Tests used:
in vivo = conditions: SD, rat
Procedure: The specimens were administered by subcutaneous injection and orally in amounts of 20 μg/kg to experimental rats (SD rat) with a body weight of approximately 200 g, then blood serum was isolated and enzyme-linked immunosorbent assays were carried out to measure change in blood drug concentration over time. Blood samples were collected from the jugular vein. A polypeptide having the amino acid sequence of SEQ. ID. No. 6 was used as the control.

blood glucose = assay: Intraperitoneal glucose tolerance test after oral administration, Embodiments 5 and 6; format: in vivo, mice (C57BL/6); conditions: C57BL/6 mice; 500 μg/kg oral at -20 minutes; glucose 2 g/kg intraperitoneal
Procedure: To confirm glucose tolerance, Embodiments 5 and 6 were orally administered to mice, and blood glucose regulation efficacy was measured through an intraperitoneal glucose tolerance test.
To measure peritoneal glucose tolerance in an animal model, 100 μl of specimen (500 μg/kg, SEQ. ID. No. 2) was orally administered at −20 minutes to 9-week-old male mice (C57BL/6), followed by intraperitoneal injection of 200 μl glucose (2 g/kg) and observation of blood glucose changes in blood collected from the tail vein at −20, 0, 20, 40, 60, 90 and 120 minutes.
FIG. 6 is a graph illustrating blood glucose change after administering glucose to each specimen.

Row | Compound | bioavailability (in vivo) [%] | glucose regulating ability (blood glucose change, FIG. 6) (blood glucose)
1 | CC[C@H](C)[C@H](NC(=O)[C@H](CCC(=O)O)NC(=O)[C@H](CO)NC(=O)[C@@H](NC(=O)[C@@H](N)CO)C(C)C)C(=O)N[C@@H](CCC(N)=O)C(=O)N[C@@H](CC(C)C)C(=O)N[C@@H](CCSC)C(=O)N[C@@H](Cc1c[nH]cn1)C(=O)N[C@@H](CC(N)=O)C(=O)N[C@@H](CC(C)C)C(=O)NCC(=O)N[C@@H](CCCCN)C(=O)N[C@@H](Cc1c[nH]cn1)C(=O)N[C@@H](CC(C)C)C(=O)N[C@@H](CC(N)=O)C(=O)N[C@@H](CO)C(=O)N[C@@H](CCSC)C(=O)N[C@@H](CCC(=O)O)C(=O)N[C@@H](CCCNC(=N)N)C(=O)N[C@H](C(=O)N[C@@H](CCC(=O)O)C(=O)N[C@@H](Cc1c[nH]c2ccccc12)C(=O)N[C@@H](CC(C)C)C(=O)N[C@@H](CCCNC(=N)N)C(=O)N[C@@H](CCCCN)C(=O)N[C@@H](CCCCN)C(=O)N[C@@H](CC(C)C)C(=O)N[C@@H](CCC(N)=O)C(=O)N[C@@H](CC(=O)O)C(=O)N[C@H](C(=O)N[C@@H](Cc1c[nH]cn1)C(=O)N[C@@H](CC(N)=O)C(=O)N[C@@H](Cc1ccccc1)C(=O)N[C@@H](CSC1CC(=O)N(CCC(=O)NC(CCCCNC(=O)CCCCC2SCC3NC(=O)NC32)C(=O)NC(CCCCNC(=O)CCCCC2SCC3NC(=O)NC32)C(=O)NC(CCCCNC(=O)CCCCC2SCC3NC(=O)NC32)C(N)=O)C1=O)C(=O)O)C(C)C)C(C)C (stereo partly shown) [Embodiment 9] | 4.9 | 
2 | CC[C@H](C)[C@H](NC(=O)[C@H](CCC(=O)O)NC(=O)[C@H](CO)NC(=O)[C@@H](NC(=O)[C@@H](N)CO)C(C)C)C(=O)N[C@@H](CCC(N)=O)C(=O)N[C@@H](CC(C)C)C(=O)N[C@@H](CCSC)C(=O)N[C@@H](Cc1c[nH]cn1)C(=O)N[C@@H](CC(N)=O)C(=O)N[C@@H](CC(C)C)C(=O)NCC(=O)N[C@@H](CCCCN)C(=O)N[C@@H](Cc1c[nH]cn1)C(=O)N[C@@H](CC(C)C)C(=O)N[C@@H](CC(N)=O)C(=O)N[C@@H](CO)C(=O)N[C@@H](CCSC)C(=O)N[C@@H](CCC(=O)O)C(=O)N[C@@H](CCCNC(=N)N)C(=O)N[C@H](C(=O)N[C@@H](CCC(=O)O)C(=O)N[C@@H](Cc1c[nH]c2ccccc12)C(=O)N[C@@H](CC(C)C)C(=O)N[C@@H](CCCNC(=N)N)C(=O)N[C@@H](CCCCN)C(=O)N[C@@H](CCCCN)C(=O)N[C@@H](CC(C)C)C(=O)N[C@@H](CCC(N)=O)C(=O)N[C@@H](CC(=O)O)C(=O)N[C@H](C(=O)N[C@@H](Cc1c[nH]cn1)C(=O)N[C@@H](CC(N)=O)C(=O)N[C@@H](Cc1ccccc1)C(=O)N[C@@H](CSC1CC(=O)N(CCC(=O)NC(CCCCNC(=O)CCCCC2SCC3NC(=O)NC32)C(=O)NC(CCCCNC(=O)CCCCC2SCC3NC(=O)NC32)C(N)=O)C1=O)C(=O)O)C(C)C)C(C)C (stereo partly shown) [Embodiment 8] | 7.8 | 
3 | Embodiment 6: polypeptide of SEQ. ID. No. 8 bonded to biotin moiety B3 at C30 (H[Aib]QGTFTSDYSKYLDEQAAKEFVQWLMNTC(biotin moiety B3); reading uncertain) |  | glucose regulating ability
4 | Embodiment 5: polypeptide of SEQ. ID. No. 8 bonded to biotin moiety B2 at C30 (H[Aib]QGTFTSDYSKYLDEQAAKEFVQWLMNTC(biotin moiety B2); reading uncertain) |  | glucose regulating ability
